Experimental data as given in IntAct's records for PubMed 21979047.

B1: Complement factor H (Homo sapiens), P08603 (parent)
chain: MRLLAKIICLMLWAICVAEDCNELPPRRNTEILTGSWSDQTYPEGTQAIYKCRPGYRSLGNVIMVCRKGEWVALNPLRKCQKRPCGHPGDTPFGTFTLTGGNVFEYGVKAVYTCNEGYQLLGEINYRECDTDGWTNDIPICEVVKCLPVTAPENGKIVSSAMEPDREYHFGQAVRFVCNSGYKIEGDEEMHCSDDGFWSKEKPKCVEISCKSPDVINGSPISQKIIYKENERFQYKCNMGYEYSERGDAVCTESGWRPLPSCEEKSCDNPYIPNGDYSPLRIKHRTGDEITYQCRNGFYPATRGNTAKCTSTGWIPAPRCTLKPCDYPDIKHGGLYHENMRRPYFPVAVGKYYSYYCDEHFETPSGSYWDHIHCTQDGWSPAVPCLRKCYFPYLENGYNQNYGRKFVQGKSIDVACHPGYALPKAQTTVTCMENGWSPTPRCIRVKTCSKSSIDIENGFISESQYTYALKEKAKYQCKLGYVTADGETSGSITCGKDGWSAQPTCIKSCDIPVFMNARTKNDFTWFKLNDTLDYECHDGYESNTGSTTGSIVCGYNGWSDLPICYERECELPKIDVHLVPDRKKDQYKVGEVLKFSCKPGFTIVGPNSVQCYHFGLSPDLPICKEQVQSCGPPPELLNGNVKEKTKEEYGHSEVVEYYCNPRFLMKGPNKIQCVDGEWTTLPVCIVEESTCGDIPELEHGWAQLSSPPYYYGDSVEFNCSESFTMIGHRSITCIHGVWTQLPQCVAIDKLKKCKSSNLIILEEHLKNKKEFDHNSNIRYRCRGKEGWIHTVCINGRWDPEVNCSMAQIQLCPPPPQIPNSHNMTTTLNYRDGEKVSVLCQENYLIQEGEEITCKDGRWQSIPLCVEKIPCSQPPQIEHGTINSSRSSQESYAHGTKLSYTCEGGFRISEENETTCYMGKWSSPPQCEGLPCKSPPEISHGVVAHMSDSYQYGEEVTYKCFEGFGIDGPAIAKCLGEKWSHPPSCIKTDCLSLPSFENAIPMGEKKDVYKAGEQVTYTCATYYKMDGASNVTCINSRWTGRPTCRDTSCVNPPTVQNAYIVSRQMSKYPSGERVRYQCRSPYEMFGDEEVMCLNGNWTEPPQCKDSTGKCGPPPPIDNGDITSFPLSVYAPASSVEYQCQNLYQLEGNKRITCRNGQWSEPPKCLHPCVISREIMENYNIALRWTAKQKLYSRTGESVEFVCKRGYRLSSRSHTLRTTCWDGKLEYPTCAKR

Variants of: B1
Settings: with albu_bovin ALB

Row | effect of a mutation on the interaction | Variant
1 | decreasing interaction strength | Y402H
